# T1: synthetic peptide comprising the epitope II region (residues 434-446) of HCV E2, strain H77 (Hepatitis C virus, strain H77)
# T1 chain: NTGWLAGLFYQHK
# Molecular target: T1, synthetic peptide comprising the …
# Assay: crystal structure; Fab 10 mg/ml + epitope II peptide (0.9 mg/ml for HC84-1, 1.5 mg/ml for HC84-27), complex formed overnight at 277 K; crystals at 293 K, hanging drop, 10 mM TRIS pH 8.0, 150 mM NaCl
# Conditions: both partners purified
binder,measurement,value
"Fab fragment of human monoclonal antibody HC84-27 (Fab, V domains shown) VH: QVTLKESGAEVKKPGSSVKVSCEASGGTLSNYVITWVRQAPGQGLEWMGGFIPTFRTAMYAQGFQGRVTITADESTSIAYMELTNLRSEDTAVYYCARGPLSRGYYDYWGQGTLVTVSS VL: SYVLTQPPSVSVSPGQTARITCSGDKLGDKYASWYQQKPGQSPVLVIYQDNKRPSEIPARFSGSNSGNTATLTISGAQAMDEADYYCQAWDSNTGVFGTGTKLTVL",binding result,binds

# Source: article PMC3656090 (PLoS Pathogens, 2013)
